Measurements: paper PMC3969988
Several values for one entry are separate records, joined by “and”; a condition that tells them apart may be missing. Identical values can stand only once.

T1: recombinant human CAP1 (human), Q01518
T1 chain: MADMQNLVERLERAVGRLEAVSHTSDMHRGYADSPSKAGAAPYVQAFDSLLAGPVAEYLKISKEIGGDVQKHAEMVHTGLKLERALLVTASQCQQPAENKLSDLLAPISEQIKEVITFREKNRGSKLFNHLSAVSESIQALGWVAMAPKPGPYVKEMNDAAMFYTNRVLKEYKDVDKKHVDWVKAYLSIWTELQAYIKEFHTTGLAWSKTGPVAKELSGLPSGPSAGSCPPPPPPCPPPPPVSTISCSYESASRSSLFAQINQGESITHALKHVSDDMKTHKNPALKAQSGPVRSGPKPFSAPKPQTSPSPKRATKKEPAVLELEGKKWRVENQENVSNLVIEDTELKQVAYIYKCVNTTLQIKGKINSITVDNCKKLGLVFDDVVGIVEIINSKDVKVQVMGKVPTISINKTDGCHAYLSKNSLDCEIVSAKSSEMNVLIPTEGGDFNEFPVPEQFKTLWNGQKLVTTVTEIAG

T2: adenovirus-delivered human resistin (human), Q9HD89
T2 chain: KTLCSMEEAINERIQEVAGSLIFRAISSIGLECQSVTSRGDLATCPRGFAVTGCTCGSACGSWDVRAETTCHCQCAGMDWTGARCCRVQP

B1: non-Fc-conjugated recombinant human resistin protein, Q9HD89 19-108 (ligand)
chain: T2 chain
B2: adenovirus-delivered human resistin, Q9HD89 19-108 (ligand)
chain: T2 chain

Assays:
[1] = target: T1, recombinant human CAP1 (human), Q01518; assay: ELISA; settings: remark: other sources report otherwise
[2] = target: T2, adenovirus-delivered human resistin …; assay: non-reducing SDS gel; settings: remark: other sources report otherwise

Binder	EC50 [1]	stoichiometry N [2]
B1	784 nM	
B2		3 and 2
